Results as given in patent US20140255304, “TDP-43 SPECIFIC BINDING MOLECULES” (BIOGEN IDEC INTERNALTIONAL NEUROSCIENCE GMBH, published 2014).

Molecular target: TDP-43 full length (residues 1-414) (Homo sapiens, UniProt Q13148 SEQ:1-414)
Assay: FP; at least 30-fold higher affinity than for U12 control; 40 mM HEPES, 0.5 M KCl, 0.4 M arginine, pH 7.4, 25 C
Settings: tags: N-terminal 6xHis-SUMO, expressed in E. coli BL21(DE3) Star; label: 5' TYE fluorophore
Procedure: Equilibrium binding affinities of TDP-43 constructs for RNA were determined using fluorescence polarization. 5′TYETM fluorophore labeled RNA substrates, specific RNA (TYETM-[…]) (SEQ ID NO: 312) and RNA control (TYETM-[…]) (SEQ ID NO: 313) (integrated DNA Technologies), were incubated at a concentration of 5 nM for 30 min at 25° C. with TDP-43 (final concentrations 0 to 20 μM) in incubation buffer as indicated. Fluorescence polarization was measured with the plate reader fluorometer Envision (PerkinElmer) at each concentration of TDP-43 in a 96 well plate format with an excitation at 645 nm and emission at 665. Kds were calculated using the quadratic equation for tight binding (Morrison equation) using Sigmaplot (Systat Software Inc.). […] Stoichiometries were calculated by measuring the intercept of two straight lines, one fit using data points of the partially bound state, and the other using data points of the fully bound state.
The recombinant full-length TDP-43 was monomeric by sedimentation analysis (FIG. 8C) in buffer containing 400 mM arginine.

Chain of TDP-43 full length (residues 1-414) (Q13148 whole entry, the tested form may be a part): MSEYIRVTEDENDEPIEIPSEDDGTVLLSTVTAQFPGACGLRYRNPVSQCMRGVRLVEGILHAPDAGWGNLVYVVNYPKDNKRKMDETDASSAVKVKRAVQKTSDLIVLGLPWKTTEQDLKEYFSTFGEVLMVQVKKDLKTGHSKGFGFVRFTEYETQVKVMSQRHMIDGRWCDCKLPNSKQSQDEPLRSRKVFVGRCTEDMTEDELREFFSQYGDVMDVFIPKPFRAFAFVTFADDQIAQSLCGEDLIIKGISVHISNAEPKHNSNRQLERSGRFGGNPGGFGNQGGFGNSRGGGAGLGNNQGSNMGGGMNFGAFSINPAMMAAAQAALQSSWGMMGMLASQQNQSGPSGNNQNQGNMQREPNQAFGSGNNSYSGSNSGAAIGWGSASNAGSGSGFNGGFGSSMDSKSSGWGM

B1: (UG)6 specific RNA (ssRNA)
RNA: UGUGUGUGUGUG
Question: B1 was tested. Which binding signal did it give?
Answer: ≥ 30 fold
